Data published in patent US20120028912A1.

Biological target: lysine-acetylated histone H4 peptide SGRGKGG-AcK-GLGK (Lys8 acetylated)
Experiment: NMR titration, 15N-HSQC chemical shift changes against ligand concentration

- Kd: 346 µM
B1: bromodomain of P/CAF (residues 719-832 of SEQ ID NO:2), Q92831 719-832 (protein)
chain: SKEPRDPDQLYSTLKSILQQVKSHQSAWPFMEPVKRTEAPGYYEVIRFPMDLKTMSERLKNRYYVSKKLFMADLQRVFTNCKEYNAAESEYYKCANILEKFFFSKIKEAGLIDK
